{"source": "patent US20110239327A1", "about": "“Nematicidal Effects of Cysteine Proteinases and Methods of Use Thereof to Treat Nematode Infestation” (priority 2007, published 2011)", "molecules": {"B1": {"name": "papain (protein, UniProt P00784 134-345, looked up)", "Papain": "IPEYVDWRQKGAVTPVKNQGSCGSCWAFSAVVTIEGIIKIRTGNLNEYSEQELLDCDRRSYGCNGGYPWSALQLVAQYGIHYRNTYPYEGVQRYCRSREKGPYAAKTDGVRQVQPYNEGALLYSIANQPVSVVLEAAGKDFQLYRGGIFVGPCGNKVDHAVAAVGYGPNYILIKNSWGTGWGENGYIRIKRGTGNSYGVCGLYTSSFYPVKN", "notes": "cysteine proteinase from Carica papaya, Merops C01.001, Sigma P3125"}}, "key": {"G. rostochiensis J2s": {"test_system": "G. rostochiensis J2s", "test": "In vitro mobility and cuticle damage of G. rostochiensis J2s", "type": "cell-based, Globodera rostochiensis", "procedure": "Eggs of M. incognita race 1 from North Carolina State University, USA, and M. javanica from Portugal were collected from the roots of infected tomato plants grown in a glasshouse at 23° C. in a 16:8 h light-dark regime. Eggs were extracted using 1% hypochlorite (NaClO) solution (Hussey and Barker, 1973) or by picking egg masses from the infected roots. M. incognita and M. javanica were both used in the experiments and produced similar results. Juveniles (J2) were hatched from the eggs and egg masses in water. Globodera rostochiensis cysts were washed extensively in distilled water. Hatched J2s were obtained by incubating cysts in distilled water for 4 days followed by exposure to potato root diffusate (PRD).\nApproximately 1000 J2s (second juvenile stage) of M. incognita or M. javanica were incubated per well of a 48-well plate with the following active enzyme concentrations (determined by E-64 titration) of papain dissolved in distilled water containing 16 mM L-cysteine (to activate the cysteine proteinase): 1.5 μM, 3 μM, 6.25 μM, 12.5 μM, 25 μM, 50 μM, 75 μM and 100 μM. […] The number of active J2s per well was counted prior to the addition of papain, and then the J2s were incubated in the dark at room temperature for 3 h. The number of mobile J2s per well was counted after 60, 120 and 180 mins. […]"}, "M. incognita J2": {"test_system": "M. incognita J2", "test": "In planta bioassay, one soil application: nematode infection of tomato roots", "type": "in vivo, M. incognita on tomato plants", "settings": "with or without Vydate 125 μl; for Mean number of nematodes in roots: soil 16% organic matter, 11 days; for Reduction of nematode infection of tomato plants: vs controls", "procedure": "Oxamyl is supplied as 10% liquid Vydate. 125 μl of a solution 1000 fold dilution of 10% formulation (kindly supplied by DK from NIU) was applied to 5 g of the soil mixture with 16% organic matter, to give a partial nematicidal effect. Soil mixtures were wetted with PBS pH 7.2, 16 hrs prior nematode application of 1000 or 2000 M. incognita J2. Infected soil mixtures were treated with water (control) or 250 μM of active papain in 16 mM of L-cysteine or a combination of Vydate and 250 μM of active papain in 16 mM of L-cysteine. After 48 hs tomato seedlings one month old were added to the treated soils. After 11 days the roots were washed free of soil and chopped to approximately 2 mm pieces. The root pieces of each tomato plant was placed in muslin bags and stained with acid-fuchsin. The stained roots were examined under microscope and all the nematodes present in the roots were counted. In some experiments the soil mixture was wetted with PBS pH 7.2 or 250 μM of active papain for 16 hs to block the non-specific binding site present in the soil particles. After that approximately 1000 M. incognita J2 were applied to soil mixtures, followed by application of 250 μM of active papain in presence of 16 mM of L-cysteine, or water (control) or Vydate alone or a combination of 250 μM of active papain in presence of 16 mM of L-cysteine and Vydate. After 48 hours tomato seedlings one month old were added to the treated soils and after 11 days post infection nematode development inside root tissues was assessed as described above.\nApproximately 2000 J2 of M. incognita were added to 5 g of 1:6 loam and sand which was previously wetted for 16 hs with PBS pH 7. Then a solution of 300 μM or 150 μM of active papain (in 16 mM of L-cysteine) with and without 125 μl Vydate was added to soil and left to react for 48 hs. After this period of time tomato seedlings one month old were added to the treated soil mixtures and placed in a glasshouse at 23° C. in a 16:8 h light-dark regime (Table 1). After 11 days nematode development in the root tissue was assessed."}}, "note": "“Also recorded” adds a separate entry of the source.", "data": [{"molecule": "B1", "values": [{"measurement": "mobility (proportion of active worms) of G. rostochiensis J2s", "setting": "G. rostochiensis J2s; 25 μM active enzyme", "value": "reduction in mobility was significantly greater overall; also recorded: Reductions in the proportion of active worms were evident"}, {"measurement": "incubation needed before damage to the cuticle, compared to Meloidogyne spp.", "setting": "G. rostochiensis J2s; data not shown", "value": "needed longer incubation periods"}, {"measurement": "Mean number of nematodes in roots", "setting": "M. incognita J2; papain 150 μM", "value": 272}, {"measurement": "Reduction of nematode infection of tomato plants", "setting": "M. incognita J2; papain 150 μM", "value": 14, "unit": "%"}, {"measurement": "Mean number of nematodes in roots", "setting": "M. incognita J2; papain 300 μM", "value": 132}, {"measurement": "Reduction of nematode infection of tomato plants", "setting": "M. incognita J2; papain 300 μM", "value": 60, "unit": "%"}]}]}
